Laboratory results published in patent US8580267B2, “Immunocytokines for tumour therapy with chemotherapeutic agents” (Philogen S.p.A., priority 2008, dated 2013).
Residue numbers refer to the chain shown, from its start.

What was measured:
[1] = test system: subcutaneous U87 glioblastoma; assay: therapy study in subcutaneous glioma mouse model; details: for effect on tumour growth: five administrations days 12-24, F16-IL2 20 μg i.v., temozolomide 0.525 mg i.p., temozolomide result by day 30
Method: Subcutaneous glioblastoma bearing mice were obtained by a s.c. flank injection of 5×10^6 U87 cells in 8-week old female BALB/c nude mice [66]. Twelve days after tumour cell implantation, when tumours had reached a size of 250-300 mm^3, mice were staged to maximize uniformity among the groups (n=5).
(§2) One group was injected i.v. (lateral tail vein) with 20 μg of F16-IL2 (corresponding to 6.6 μg of IL2) in a total volume of 100 μl PBS solution (Phosphate Buffer Saline), one was injected i.p. with 0.525 mg of temozolomide (corresponding to 75 mg/m^2) in a total volume of 150 μl saline 10% DMSO solution, a third group received both the i.v. injection of 20 μg F16-IL2 and the i.p. of 0.525 mg temozolomide, finally, the control group was injected i.p. with 150 μl of saline 10% DMSO.
(§3) A schedule of five total administrations was established: on days 12, 15, 18, 21, 24 from the tumour cell injection into mice (day 0).
(§4) Mice were monitored daily and tumours were measured with a digital caliper three times per week. Tumour volume was estimated using the formula: volume=length×width^2/2. Animals were sacrificed when tumours approached a volume of 3,000 mm^3 or when tumours turned necrotic and bleeding, according to the Swiss regulations and under a project license granted by the Veterinäramt des Kantons Zürich (198/2005).
Tumour volumes are shown as average ±SD or SE. Kaplan-Meier survival curves were performed to display therapeutic efficacy in the subcutaneous glioma model.

[2] = body weight of mice in the subcutaneous glioblastoma therapy study; format: in vivo, BALB/c nude mice
Method: as §2, §3, §4

[3] = molecular target: T1, TNC-A1 (Homo sapiens, UniProt P24821); assay: immunoreactivity after radiolabelling on TNC-A1-Sepharose resin; format: binding; details: radiolabelled F16-IL2 on TNC-A1-Sepharose resin
T1 construct: loading a sample of radiolabelled F16-IL2 onto TNC-A1-Sepharose resin
T1 sequence (P24821 1076-1165 limits assumed): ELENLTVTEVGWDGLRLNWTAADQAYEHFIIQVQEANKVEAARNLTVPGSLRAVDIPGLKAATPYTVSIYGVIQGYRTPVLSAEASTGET
Method: (§1) The in vivo targeting performance of F16-IL2 was evaluated by quantitative biodistribution analysis. […] Antibody immunoreactivity after labelling was evaluated by loading a sample of radiolabelled F16-IL2 onto TNC-A1-Sepharose resin, followed by radioactive counting of the flow-through and of the eluate fractions. Immunoreactivity, defined as the ratio between the counts of the eluted protein and the sum of the counts of the eluted and flow-through fractions, was 84%. Mice were sacrificed 24 hours after injection of F16-IL2 (10 μg, 3.6 μCi per mouse). Organs were weighed and radioactivity was counted with a Packard Cobra gamma counter. Radioactivity content of representative organs was expressed as the percentage of the injected dose per gram of tissue (% ID/g).

[4] = test system: subcutaneous U87 tumours; assay: quantitative biodistribution analysis in mice bearing subcutaneous U87 tumours; format: in vivo, BALB/c nude mice; details: radioiodinated F16-IL2 i.v., 24 h after injection
Method: as §1

[5] = test system: s.c. U87 tumours; assay: immunofluorescence assessment of tumour-infiltrating cells and microvascular density in subcutaneous glioma xenografts; format: in vivo, Balb/c nude mice; details: anti-human IL2 staining, after three injections
Method: To evaluate the role of inflammatory cell responses in vivo, female Balb/c nude mice bearing s.c. U87 tumours (3 mice per group) were treated on days 12, 15 and 18 after tumour cell implantation with either saline 10% DMSO (i.p.), F16-IL2 (i.v.), temozolomide (i.p.), and F16-IL2 (i.v.) plus temozolomide (i.p.). Mice were sacrificed 24 hours after the third injection, and tumours were excised and snap-frozen in OCT. […]
Sections of 10 μm thickness were treated with ice-cold acetone, rehydrated in PBS and blocked with PBS 10% donkey serum+10% goat serum. […] Bound antibody was detected with fluorescent Alexa488- or Alexa594-coupled secondary antibodies (donkey anti-rat or goat anti-rabbit, BD Biosciences Pharmingen) and DAPI in a PBS 12% BSA solution.
In each tumour section, the staining given by the primary antibodies was quantified in three representative 10× microscopic images using the ImageJ software (http://rsb.info.nih.gov/ij/).

[6] = molecular target: T2, extra-domain A1 of tenascin C (Homo sapiens, UniProt P24821); assay: real-time interaction analysis on a BIAcore 3000 instrument; format: binding; details: after affinity maturation
T2 construct: F16 is a human monoclonal antibody specific to the extra-domain A1 of tenascin C [25]
T2 sequence (P24821 1076-1165 limits assumed): T1 sequence (P24821 1076-1165 limits assumed)

[7] = molecular target: T3, A1 domain of tenascin-C (Homo sapiens, UniProt P24821); assay: immunohistochemistry on human glioblastoma specimens and U87 xenografts with F16; details: biotinylated SIP format, 2 μg/ml; patterns and intensities comparable to L19
T3 construct: from tissue; host or cells: human glioblastoma surgical specimens; U87 glioblastoma xenografts grown s.c. in nude mice
Method: Freshly frozen human glioblastoma tissues were received from the Neurosurgery department of Basel University Hospital, Basel, Switzerland, and were stored at −80° C.
For immunohistochemical procedures, the F16 antibody was used in biotinylated small immunoprotein (SIP) format. F16 is a human monoclonal antibody specific to the extra-domain A1 of tenascin C [25]. […] The SIP antibody format consists of a covalent homodimer in which each monomeric unit comprises a scFv fused to a human CH4 domain of the secretory isoform S2 of human IgE (as exemplified for antibody L19 in ref. [65]). This domain promotes the formation of homodimers that are further stabilized by disulfide bonds between the C-terminal cysteine residues, resulting in a 75 kDa homobivalent miniantibody. This SIP antibody was further biotinylated in order to avoid background staining given by the human endogenous IgE.
Sections of 10 μm thickness were treated with ice-cold acetone, rehydrated in TBS (50 mM Tris, 100 mM NaCl, 0.001% Aprotinin, pH 7.4) and blocked with TBS 20% fetal calf serum. Biot-(SIP) F16 antibody was added onto the sections in a final concentration of 2 μg/ml. Bound antibody was detected with streptavidin-alkaline phosphatase complex (Biospa). Fast Red (Tablets Set, Sigma) was used as phosphatase substrate and sections were counterstained with Gill's hematoxylin no. 2 (Sigma). […]

[8] = molecular target: tenascin-C (Homo sapiens, UniProt P24821); assay: binding of F16 with Ala to Met mutation in VH CDR1; details: Ala to Met in position 4 of VH CDR1
Sequence of tenascin-C (P24821 23-2201): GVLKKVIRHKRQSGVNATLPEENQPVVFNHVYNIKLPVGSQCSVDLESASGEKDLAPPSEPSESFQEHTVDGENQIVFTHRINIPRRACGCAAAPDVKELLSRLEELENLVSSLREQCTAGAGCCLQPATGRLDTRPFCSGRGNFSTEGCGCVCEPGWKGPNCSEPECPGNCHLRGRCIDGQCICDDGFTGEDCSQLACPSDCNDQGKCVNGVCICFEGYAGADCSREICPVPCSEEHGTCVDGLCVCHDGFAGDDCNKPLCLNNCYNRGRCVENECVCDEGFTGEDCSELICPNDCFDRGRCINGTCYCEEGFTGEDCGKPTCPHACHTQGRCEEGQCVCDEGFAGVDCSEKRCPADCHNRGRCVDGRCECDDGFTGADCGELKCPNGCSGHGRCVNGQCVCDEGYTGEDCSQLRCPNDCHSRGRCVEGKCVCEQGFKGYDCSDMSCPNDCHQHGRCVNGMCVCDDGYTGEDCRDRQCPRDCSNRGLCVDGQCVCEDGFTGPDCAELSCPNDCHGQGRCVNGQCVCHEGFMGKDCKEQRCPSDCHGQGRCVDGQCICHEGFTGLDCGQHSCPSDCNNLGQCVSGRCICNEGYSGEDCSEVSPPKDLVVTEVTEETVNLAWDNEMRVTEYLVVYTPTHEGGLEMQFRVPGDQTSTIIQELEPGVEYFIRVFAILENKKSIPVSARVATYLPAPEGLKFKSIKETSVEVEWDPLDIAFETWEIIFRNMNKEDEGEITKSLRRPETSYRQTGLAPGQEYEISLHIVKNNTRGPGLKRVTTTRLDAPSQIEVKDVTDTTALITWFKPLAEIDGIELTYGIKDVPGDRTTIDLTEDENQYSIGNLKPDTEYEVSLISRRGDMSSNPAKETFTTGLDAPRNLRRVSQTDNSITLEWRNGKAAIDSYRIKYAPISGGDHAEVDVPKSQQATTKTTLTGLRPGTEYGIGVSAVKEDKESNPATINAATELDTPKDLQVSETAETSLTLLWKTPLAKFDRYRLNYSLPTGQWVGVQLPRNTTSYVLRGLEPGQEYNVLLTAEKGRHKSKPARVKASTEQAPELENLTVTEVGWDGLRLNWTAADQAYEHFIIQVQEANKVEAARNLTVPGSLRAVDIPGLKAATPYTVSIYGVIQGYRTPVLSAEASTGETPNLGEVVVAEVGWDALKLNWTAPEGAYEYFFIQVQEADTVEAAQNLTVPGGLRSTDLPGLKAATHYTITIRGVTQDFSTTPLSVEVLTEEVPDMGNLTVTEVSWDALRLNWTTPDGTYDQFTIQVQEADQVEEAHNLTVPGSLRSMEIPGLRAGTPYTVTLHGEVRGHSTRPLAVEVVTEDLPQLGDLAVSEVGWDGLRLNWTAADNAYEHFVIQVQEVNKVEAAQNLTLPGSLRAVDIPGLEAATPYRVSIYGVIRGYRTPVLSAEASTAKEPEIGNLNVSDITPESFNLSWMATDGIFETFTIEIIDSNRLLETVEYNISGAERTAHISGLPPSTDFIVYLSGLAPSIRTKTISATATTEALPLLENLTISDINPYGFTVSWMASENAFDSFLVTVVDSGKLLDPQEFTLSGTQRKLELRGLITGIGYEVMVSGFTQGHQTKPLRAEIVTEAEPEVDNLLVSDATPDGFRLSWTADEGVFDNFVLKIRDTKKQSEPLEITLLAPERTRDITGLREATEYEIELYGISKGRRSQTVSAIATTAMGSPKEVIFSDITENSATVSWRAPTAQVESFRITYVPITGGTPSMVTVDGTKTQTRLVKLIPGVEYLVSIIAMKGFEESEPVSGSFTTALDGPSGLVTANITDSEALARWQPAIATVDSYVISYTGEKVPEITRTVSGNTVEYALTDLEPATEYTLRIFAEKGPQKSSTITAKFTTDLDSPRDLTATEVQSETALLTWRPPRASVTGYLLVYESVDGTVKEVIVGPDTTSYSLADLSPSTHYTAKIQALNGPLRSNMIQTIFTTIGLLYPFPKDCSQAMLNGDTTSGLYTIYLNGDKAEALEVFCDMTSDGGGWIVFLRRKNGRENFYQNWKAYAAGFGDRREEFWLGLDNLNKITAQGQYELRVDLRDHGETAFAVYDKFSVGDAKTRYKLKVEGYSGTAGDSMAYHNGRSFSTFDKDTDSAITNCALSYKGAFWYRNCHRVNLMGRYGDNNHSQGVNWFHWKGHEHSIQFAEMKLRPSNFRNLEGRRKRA

T3 sequence (P24821 23-2201): as above

With Cn1nnc2c(C(N)=O)ncn2c1=O [temozolomide, 8-carbamoyl-3-methylimidazo[5,1-d]-1,2,3,5-tetrazin-4(3H)-one] the “mice in which tumours started growing again” value ([1]; by day 45) was 3/5, the “effect on tumour growth” value [1] was “virtually complete tumour regression” and the “mice surviving over 3 months from the tumour cell injection” value ([1]; n=5 per group, combination group alive and tumour-free) was “two mice”. For the same molecule, the “day before which the other animals were sacrificed” value ([1]; tumour had reached the cut-off size) was < 106 days and the “transient weight loss, nadir” value ([2]; after the fifth injection) was 10%.

For “F16-IL2: clinical-stage immunocytokine consisting of human IL-2 fused to the human antibody F16, specific to the A1 domain of tenascin-C”, the “immunoreactivity (eluted counts / eluted + flow-through counts)” value [3] was 84%, the “accumulation in the tumour” value [4] was 2.3 % ID/g and the tumour-to-blood ratio [4] was 11.5. The “sacrifice of the last mouse, day from tumour cell inoculation” value ([1]; Kaplan-Meier survival, cut-off tumour size 3,000 mm^3) was 47 days, the “effect on tumour growth” value [1] was “minor tumour growth retardation” and the “localization of the immunocytokine within the tumour” value [5] was “perivascular region and in the tumour extracellular matrix”. For the same molecule, the “weight loss” value ([2]; F16-IL2 20 μg i.v., five administrations) was “no weight loss”.

B1: F16: human monoclonal antibody specific to the extra-domain A1 of tenascin C; used in biotinylated SIP format for immunohistochemistry (antibody, V domains shown)
VH: EVQLLESGGGLVQPGGSLRLSCAASGFTFSRYGASWVRQAPGKGLEWVSAISGSGGSTYYADSVKGRFTISRDNSKNTLYLQMNSLRAEDTAVYYCAKAHNAFDYWGQGTLVTVSR
VL: SSELTQDPAVSVALGQTVRITCQGDSLRSYYASWYQQKPGQAPVLVIYGKNNRPSGIPDRFSGSSSGNTASLTITGAQAEDEADYYCNSSVYTMPPVVFGGGTKLTVL
In the case of B1, the dissociation constant [6] is reported as “low nanomolar range” and the “staining of tumour sections” value [7] is reported as “strongly stain both experimental U87 tumours and glioblastomas from patients”.

B2: improved variant of F16: 4A1-F16 having the Ala to Met mutation in VH CDR1, giving VH CDR1 SEQ ID NO: 18 (antibody, V domains shown)
VH: B1 VH with A34M
VL: B1 VL
For B2, the “binding affinity to tenascin-C” value [8] was “retaining high affinity binding to tenascin-C”.
